From the supplement of paper PMC7877785
± gives the uncertainty stated by the source.

Experiment: self-splicing fitness, log relative to wild type (ln ratio); higher = more splicing; Tetrahymena group I intron in knt gene, E. coli kanamycin selection, DiMSum; sequences stand for … in CUCUCU…GGAGGGAAAAGUUAUCAGGCAUGCACCUGGUAGCUAGUCUUUAAACCAAUAGAUUGCAUCGGUUUAAAAGGCAAGACCGUCAAAUUGCGGGAAAGGGGUCAACAGCCGUUCAGUACCAAGUCUCAGGGGAAACUUUGAGAUGGCCUUGCAAAGGGUAUGGUAAUAAGCUGACGGACAUGGUCCUAACCACGCAGCCAAGUCCUAAGUCAACAGAUCUUCUGUUGAUAUGGAUGCAGUUCACAGACUAAAUGUCGGUCGGGGAAGAUGUAUUCUUCUCAUAAGAUAUAGUCGGACCUCUCCUUAAUGGGAGCUAGCGGAUGAAGUGAUGCAACACUGGAGCCGCUGGGAACUAAUUUGUAUGCGAAAGUAUAUUGAUUAGUUUUGGAGUACUCGUGGUCG
How it was run: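 The eight P1ex-region nucleotides of an intron in the knt kanamycin-resistance gene on pET-22b(+) were all randomised and the library put into E. coli BL21(DE3). Six replicate transformations were grown overnight at 37°C or 30°C on LB agar with or without 25 μg/mL kanamycin, together with 100 μg/mL carbenicillin, 50 μM IPTG and 0.2% rhamnose. Colonies were pooled and amplicon-sequenced on an Illumina HiSeq 2500. Fitness from DiMSum is the error-weighted combination of wild-type-normalised replicate fold changes, kanamycin over none.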

Sequence	self-splicing fitness (ln) (30 °C)	self-splicing fitness (ln) (37 °C)
CUCCAGCAAUAUUACGAAUU	-3.27 ± 0.18	-2.18 ± 0.2
CUCCAGCAAUAUUACGCAAC	-3.98 ± 0.43	-3.13 ± 0.42
CUCCAGCAAUAUUACGCGAA	-3.06 ± 0.14	-1.77 ± 0.16
CUCCAGCAAUAUUACGCGAU	-3.55 ± 0.13	-2.24 ± 0.14
CUCCAGCAAUAUUACGCUCU	-3.59 ± 0.31	-3.04 ± 0.34
CUCCAGCAAUAUUACGGAUA	-1.82 ± 0.11	-0.962 ± 0.1
CUCCAGCAAUAUUACGGGUA	-1.35 ± 0.067	-1.11 ± 0.08
CUCCAGCAAUAUUACGGGUG	-2.79 ± 0.097	-1.53 ± 0.088
CUCCAGCAAUAUUACGGUGC	-2.92 ± 0.17	-2.27 ± 0.24
CUCCAGCAAUAUUACGGUUG	-2.69 ± 0.097	-1.01 ± 0.12
CUCCAGCAAUAUUACGUACG	-1.82 ± 0.11	-0.463 ± 0.12
CUCCAGCAAUAUUACGUAGU	-3.75 ± 0.19	-2.89 ± 0.22
CUCCAGCAAUAUUACGUAUA	-3.54 ± 0.23	-0.63 ± 0.16
CUCCAGCAAUAUUACGUCUG	-3.51 ± 0.17	-2.54 ± 0.18
CUCGAGCAAUAUUACGAAAA	-1.93 ± 0.44	–
CUCGAGCAAUAUUACGAAGG	-2.2 ± 0.27	-1.38 ± 0.41
CUCGAGCAAUAUUACGACCA	-3.07 ± 0.26	-2.22 ± 0.49
CUCGAGCAAUAUUACGACCU	-3.42 ± 0.25	-3.53 ± 0.37
CUCGAGCAAUAUUACGACUA	-3.02 ± 0.33	-0.507 ± 0.21
CUCGAGCAAUAUUACGAGUG	-1.7 ± 0.1	-1.47 ± 0.12
CUCGAGCAAUAUUACGAUAU	-4.2 ± 0.31	-1.91 ± 0.25
CUCGAGCAAUAUUACGAUCU	-3.58 ± 0.25	-3.53 ± 0.26
CUCGAGCAAUAUUACGAUUU	-3.73 ± 0.2	-2.91 ± 0.21
CUCGAGCAAUAUUACGCACA	-4.64 ± 0.3	-1.94 ± 0.19
CUCGAGCAAUAUUACGCAUC	-3.3 ± 0.22	-2.49 ± 0.3

Sequence	self-splicing fitness (ln) (30 °C)	self-splicing fitness (ln) (37 °C)
CUCGAGCAAUAUUACGCAUU	-3.59 ± 0.3	–
CUCGAGCAAUAUUACGCUAG	-4.42 ± 0.39	-2.52 ± 0.32
CUCGAGCAAUAUUACGGAAG	-3.56 ± 0.2	-1.32 ± 0.13
CUCGAGCAAUAUUACGGAAU	-3.24 ± 0.2	-3.23 ± 0.38
CUCGAGCAAUAUUACGGACC	-3.81 ± 0.37	-2.52 ± 0.41
CUCGAGCAAUAUUACGGCAA	-1.82 ± 0.32	-2.31 ± 0.27
CUCGAGCAAUAUUACGGCAC	-3.63 ± 0.25	-2.16 ± 0.36
CUCGAGCAAUAUUACGGCAG	-1.71 ± 0.13	-1.03 ± 0.15
CUCGAGCAAUAUUACGGCAU	-2.71 ± 0.19	-3.09 ± 0.37
CUCGAGCAAUAUUACGGCGG	-1.2 ± 0.12	-0.858 ± 0.2
CUCGAGCAAUAUUACGGGGC	-3.41 ± 0.18	-1.51 ± 0.16
CUCGAGCAAUAUUACGGUCU	-3.02 ± 0.15	-2.11 ± 0.17
CUCGAGCAAUAUUACGGUUG	-3.73 ± 0.13	-2.07 ± 0.13
CUCGAGCAAUAUUACGUACC	-2.32 ± 0.26	-0.911 ± 0.39
CUCGAGCAAUAUUACGUCCG	-3.41 ± 0.18	-3.68 ± 0.42
CUCGAGCAAUAUUACGUCUA	-1.79 ± 0.24	-2.43 ± 0.31
CUCGAGCAAUAUUACGUGUG	-2.74 ± 0.12	-1.27 ± 0.095
CUCGAGCAAUAUUACGUUAC	–	-2.22 ± 0.43
CUCUAGCAAUAUUACGAAGG	-2.01 ± 0.38	-1.16 ± 0.32
CUCUAGCAAUAUUACGAAUC	–	-3.69 ± 0.39
CUCUAGCAAUAUUACGACAC	–	-2.49 ± 0.25
CUCUAGCAAUAUUACGAUGG	-3.61 ± 0.19	-1.91 ± 0.14
CUCUAGCAAUAUUACGCACG	-2.45 ± 0.17	-1.95 ± 0.23
CUCUAGCAAUAUUACGCCGU	-2.12 ± 0.27	-3.98 ± 0.39
CUCUAGCAAUAUUACGCCUU	-1.58 ± 0.18	–
